These results are taken from US20120219545A1.

Test [1] addresses serum IgE of subject 2 (human). Nature of the test: ELISA inhibition; serum of subject 2 preincubated with rSCP, IgE binding to plate-coated boiled shrimp extract.
The target of test [2] is serum IgE of subject 43 (human). As to the kind of experiment: ELISA inhibition; serum of subject 43 preincubated with rSCP (printed 25 mg/mL), IgE binding to plate-coated boiled shrimp extract.
The target in test [3] is IgE of the serum pool of subjects 14, 47 and 48 (human). Nature of the test: cell-based or functional assay.

B1: recombinant shrimp sarcoplasmic calcium-binding protein (rSCP) (protein, not shown: small tags and cut ends)
chain: MAYSWDNRVKYVVRYMYDIDNNGFLDKNDFECLAVRNTLIEGRGEFSADAYANNQKIMRNLWNEIAELADFNKDGEVTVDEFKQAVQKHCQGKKYGDFPGAFKVFIANQFKAIDVNGDGKVGLDEYRLDCITRSAFAEVKEIDDAYNKLTTEDDRKAGGLTLERYQDLYAQFISNPDESCSACYLFGPLKVVQ
As for B1, the maximal inhibition turned out to be 48% in test [1] and 79% in test [2]. Moreover, the mediator release (beta-hexosaminidase) from RBL-2H3 cells (% of total possible release) in test [3] was 30. In test [3] (scale: % of the release obtained with BS extract), the mediator release (beta-hexosaminidase) from RBL-2H3 cells was 65.
